Test results published in patent publication US9856300B2, “Dpy-30 binding peptides and methods of use” (Marquette University, priority 2011, dated 2018).
No end group written: not given here.

Assays:
RIα D/D (a.a.#1-81) = biological target: T1, RIα D/D (a.a.#1-81) (Bos taurus, UniProt P00514); assay: Ni-NTA pulldown with His-RIα D/D; type: binding, bovine; settings: 300 mM NaCl buffers
T1 construct: made in house; host or cells: E. coli BL21(DE3); template pRSETB-RIα from Dr. Susan Taylor
Text: (§1) Most AHs are mono-specific to RIIα D/D except a few that are either RIα D/D-specific (Angelo and Rubin, 1998; Means et al., 2011; Welch et al., 2010) or dual specific, binding to both (Huang et al., 1997; Jarnaess et al., 2008). To test if hAsh2 AH can cross-react with PKA's D/D, we created constructs expressing the D/D domain and the flanking sequences from bovine RIα (a.a.#1-81) and mouse RIIα (a.a.#1-64). His-RIα D/D or His-RIIα D/D was co-expressed with GST-RSP396-180, which contains the AH (RSP3160-178) that bind RII in the overlay assay (Gaillard et al., 2001). […] In the eluate, the ratio of RSP396-180-RIα D/D was the lowest, followed by RSP396-180-RIIα D/D and then RSP396-180-RIIα D/D from RSP7, the de facto partner of RSP3. Although RSP396-180 in the extract was also the most concentrated when co-expressed with RSP7's RIIα, this likely is due to effective binding of RSP7's D/D, protecting GST-RSP396-180 from proteolysis, which occurred when GST-RSP396-180 was expressed by itself (not shown). […]
Although both RIα D/D and Dpy-30 D/D have a common α0 helix (Wang et al., 2009), GST-hAsh2593-623 cross reacted with RIα D/D poorly. […] To test this, the samples from repeated experiments were analyzed in the non-reducing SDS-PAGE. […]

Dpy-30 [1] = biological target: T2, Dpy-30 (Homo sapiens, UniProt Q9C005); assay: Ni-NTA pulldown of GST-hAsh2 peptides with His-Dpy-30; type: binding; parameters: Dpy-30 fragments, full length or a.a.#49-99, were amplified using purchased IMAGE cDNA clone #4081996 as a template; made in house; host or cells: E. coli BL21(DE3); key to co-purified with Dpy-30: “+” or “−” indicates if the peptides were or were not evidently co-purified with Dpy-30; “+” or “−” indicates if the peptides were or were not evidently co-purified with Dpy-30
Text: To test this, we performed pull down assays for His-Dpy-30 and GST-hAsh2593-623. The human Ash2 fragment contains a helix with two typical and three atypical ΦΦXX motifs. The hAsh2 DNA was fused downstream to GST DNA by PCR and the product was cloned into an expression vector. Three clones—#9 and #14 with the expected in-frame fusion and #6 with an out-of-frame fusion—were expressed in bacteria. Their extract was mixed with equal volume of bacterial extract with His-Dpy-30; and the mixture was subjected to Ni-NTA purification. […] Thus hAsh2593-623 interacts with Dpy-30 specifically.
Table 3 illustrates the protein sequences of hAsh2's C-terminal region (hAsh2593-623) and its variants, where “+” or “−” indicates if the peptides were or were not evidently co-purified with Dpy-30. The shorter fusion protein GST-hAsh2593-617 that terminated right after the last possible ΦΦXX-like motif, VETE (SEQ ID NO:35), in the helix was also co-purified with His-Dpy-30 (FIG. 11B, arrow and double arrowheads), no matter expressed separately or co-expressed. Both polypeptides were depleted in the flow through of Ni-NTA matrix (Post in FIG. 11B) and retained in the eluate.
All expression constructs were transformed or co-transformed into BL21(DE3) cells. The colonies were selected based on the antibiotic-resistant gene in each plasmid. The cultures were induced with 1 mM IPTG overnight at 18° C. The cell pellet from a 5-ml culture was resuspended in 750-μl lysis buffer supplemented with Complete Mini EDTA-free protease inhibitor cocktail tablets (Roche) and the suspension was sonicated on ice using Branson digital Sonifier until clarified (Emerson Industrial Automation). The sonicated mixtures were centrifuged at 4° C., 12,000 rpm for 25 min. The supernatant or combinations of supernatants as indicated were incubated with ˜100 μl Ni-NTA (Qiagen or Clontech) or Glutathione Sepharose 4B (Amersham Biosciences) for 1 hour at room temperature. The matrix was subsequently washed as instructed by manufacturers, unless indicated otherwise.
Bacterial extract, flow through and eluate in 1× Laemmli samples buffer were boiled for 5 min. In general, 10 μl samples were loaded in each lane in 4-20% precast acrylamide gels (Bio-Rad or DGEL Electrosystem, Canada) or 14% manually cast gels.

RIIα D/D (a.a.#1-64) = biological target: T3, RIIα D/D (a.a.#1-64) (Mus musculus, UniProt P12367, S2G); assay: Ni-NTA pulldown with His-RIIα D/D; type: binding; settings: 300 mM NaCl buffers
T3 construct: made in house; host or cells: E. coli BL21(DE3); template pRSETB-RIIα from Dr. Susan Taylor
Text: as §1, with “shown). Similarly, when co-expressed with GST-hAsh2593-623, RIα D/D and RIIα D/D were depleted in the flow through but few polypeptides, especially RIIα D/D, were present in the eluate (FIG. 12A, right panel, compare Extract, Post and Elute).” for “shown).”

[2] = biological target: T4, Dpy-30 domain only (Dpy-3045-99) (Homo sapiens, UniProt Q9C005); assay: Ni-NTA pulldown of GST-tagged RSP3 peptides with the Dpy-30 domain only; type: binding
T4 construct: made in house; host or cells: E. coli BL21(DE3), co-expressed with the GST-RSP3 peptides
Procedure: (§2) The experiments were further conducted on smaller segments within a.a.#269-316. GST-RSP3280-316 and GST-RSP3280-308, but not GST-RSP3280-306, were also pulled down by His-Dpy-30 (FIG. 7E, left panel). […] To ensure that the co-purification occurs through the Dpy-30 domain rather than its flanking sequence, the same experiment was conducted with the Dpy-30 domain only (Dpy-3045-99, Wang et al., 2009). The results from the experiments using Dpy-30 domain alone or full-length Dpy-30 protein were similar (FIG. 7E, right panel). Based on the similar dimensions of the RIIa and Dpy-30 domains (FIG. 1), we tested if the Dpy-30 binding peptide is centered on the 18-a.a. helix at the a.a.#291-308 by mutating V300 in the middle of the region into P, a strategy used to study AHR (Gaillard et al., 2001; Carr et al., 1992). […] RSP3291-308.
For Ni-NTA (Qiagen) affinity co-purification, GST-tagged RSP3 constructs and His-tagged HDpy-30 constructs were co-transformed into BL21(DE3) cells. The recombinant proteins were induced using 1 mM IPTG overnight at 16° C. Following induction, the cell pellet from a 5-ml culture was resuspended in 750 μl lysis buffer and sonicated using Branson digital Sonifier (Emerson Industrial Automation). The sonicated mixtures were centrifuged at 4° C., 12,000 rpm for 25 min. The supernatant was incubated with 100 μl Ni-NTA for 1 hour at room temperature. […]

Dpy-30 [3] = biological target: T2, Dpy-30; assay: Ni-NTA pulldown of GST-tagged RSP3 peptides with His-tagged human Dpy-30 protein; type: binding; parameters: made in house; host or cells: E. coli BL21(DE3), co-expressed with the GST-RSP3 peptides; settings: full-length human His-Dpy-30 co-expressed with GST-RSP3 peptide
Text: (§3) Based on the phenotypes of RSP3 transgenic strains (FIG. 4), an in vitro approach was taken to test that RSP3269-316 contains a Dpy-30 domain binding site. RIIa-binding AHs are 14-18-a.a. long. Some of AHs are clearly comprised of ΦΦXX repeats in which the first two residues are hydrophobic residues (Φ) positioned to interact with complementary residues at the binding grooves of the RIIa domain (Burns-Hamuro et al., 2003; Kinderman et al., 2006; Sarma et al., 2010), whereas for the other RIIa-binding AHs the repeats are not as evident (Gold et al., 2006; Gaillard et al., 2001). Typical ΦΦXX repeats were noted within the Dpy-30 binding fragment in BIG1 at the trans-Golgi network but were not tested yet (Xia et al., 2010). For RSP3269-316, typical and degenerate ΦΦXX repeats are present throughout this region, thus the precise Dpy-30 binding site was determined objectively by Ni-NTA pulldown. As a control, the His-tagged RIIa domain from RSP7 was co-expressed with the GST-tagged RSP396-180 that harbors AHR at a.a.#161-178 (Gaillard et al., 2001; FIG. 3) and both polypeptides were co-purified by Ni-NTA (FIG. 7A). Various Dpy-30 domain containing RSP2 and RSP23 polypeptides were tested but were not compatible for this assay due to poor expression or precipitation propensity. Therefore we used the His-tagged human Dpy-30 protein for Ni-NTA pulldown instead. As expected, both GST-RSP3245-316 and GST-RSP3269-316 were co-purified with His-Dpy-30 by Ni-NTA (FIGS. 7B and 7C). In contrast, the GST control was not co-purified (FIG. 7D).
as §2
For Ni-NTA (Qiagen) affinity co-purification, GST-tagged RSP3 constructs and His-tagged HDpy-30 constructs were co-transformed into BL21(DE3) cells. The recombinant proteins were induced using 1 mM IPTG overnight at 16° C. Following induction, the cell pellet from a 5-ml culture was resuspended in 750 μl lysis buffer and sonicated using Branson digital Sonifier (Emerson Industrial Automation). The sonicated mixtures were centrifuged at 4° C., 12,000 rpm for 25 min. The supernatant was incubated with 100 μl Ni-NTA for 1 hour at room temperature. The matrix was subsequently washed thrice and elution was carried out as instructed by the manufacturer.

RIIa domain from RSP7 = assay: Ni-NTA pulldown with His-tagged RIIa domain from RSP7; type: binding, Chlamydomonas; settings: co-expressed in bacteria
Text: as §3
Based on the structural similarity, we tested for the cross-recognition of His-Dpy-30 and AHR (GST-RSP3g); and RSP7's RIIa and AHD (GST-RSP3280-308) by the described Ni-NTA pulldown assay. […] Thus Dpy-30 that has a deep pocket from an additional α-helix recognizes both AHR and AHD, whereas RSP7's RIIa, as PKA's RII, only binds RSP3's AHR(Gaillard et al., 2001). […]

T2 sequence (Q9C005 whole entry, the tested form may be a part): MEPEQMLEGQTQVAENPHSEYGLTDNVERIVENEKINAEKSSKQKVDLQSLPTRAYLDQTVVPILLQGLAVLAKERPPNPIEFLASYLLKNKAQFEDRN
T1 sequence (P00514 1-81): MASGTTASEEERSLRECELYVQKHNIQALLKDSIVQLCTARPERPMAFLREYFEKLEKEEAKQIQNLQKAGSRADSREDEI
T4 sequence (Q9C005 45-99): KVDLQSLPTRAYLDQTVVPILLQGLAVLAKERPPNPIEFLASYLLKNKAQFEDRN
T3 sequence (P12367 1-64 S2G limits assumed): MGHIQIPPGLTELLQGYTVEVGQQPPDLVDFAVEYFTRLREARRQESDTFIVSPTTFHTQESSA

| Molecule | co-purification with His-RIα D/D (RIα D/D (a.a.#1-81)) | co-purified with Dpy-30 (Dpy-30 [1]; GST-fused hAsh2 peptides, Ni-NTA pulldown, Coomassie-stained SDS-PAGE) | co-purification with His-Dpy-30 (Dpy-30 [1]; full-length His-Dpy-30, Ni-NTA, result in words) | co-purification with His-RIIα D/D (RIIα D/D (a.a.#1-64)) | binding to the Dpy-30 domain [2] | co-purification / pulldown with His-Dpy-30 (Dpy-30 [3]) | co-purification / pulldown with His-RIIa from RSP7 (RIIa domain from RSP7) | co-purification / pulldown with His-RIIa from RSP7 (RIIa domain from RSP7; listed as GST-RSP390-180) |
| --- | --- | --- | --- | --- | --- | --- | --- | --- |
| PMSDMGWGAVVKHTLADVLYHVETEVDGRRS (also: GST fusion) [E604K, GST-hAsh2593-623 with E604 mutated to K] | not | + | still pulled down substantially | substantially enhanced the pulldown | – | – | – | – |
| V300P: GST-tagged RSP3280-316 with V300 mutated into P (PWLKEQAIGYLARGVVARRVPDKLVEDAAAALAANRS; also: GST tag) | – | – | – | – | abrogated the binding | abrogated the binding | – | – |
| RSP396-180: GST-tagged RSP3 fragment a.a. 96-180 that harbors the RIIa-binding AHR at a.a.#161-178 (protein, left off: a dimerising Fc or GST) HIDIQTDVYLEELTDTVPEADTSTQTDAFLDRPPTPLFVPQKTGTDAITQIENGDLFDFDFEVEPILEVLVGKVLEQGLMEVLEE | the lowest | – | – | – | – | pulled down | co-purified | most efficient |
